First the molecules themselves.
T1: TNFR1 (Homo sapiens, UniProt P19438)
T1 chain: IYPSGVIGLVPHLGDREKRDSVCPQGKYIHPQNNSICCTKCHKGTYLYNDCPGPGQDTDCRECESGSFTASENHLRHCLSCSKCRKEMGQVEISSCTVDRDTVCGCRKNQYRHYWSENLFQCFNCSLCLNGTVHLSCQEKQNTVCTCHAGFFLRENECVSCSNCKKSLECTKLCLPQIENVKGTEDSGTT

B1: A28N (designed binder)
chain: MTLQELLREEALRRAEAEAFRYALELLNEKFPEQKEYLLDLAEEIESQIRSLSGVDVEDVRKFLDKEWAWVKELLAEHPAELAEVEAARAARLAELRAEVEAKVAA
B2: A87K (designed binder)
chain: MTLQELLREEALRRAEAEAFRYALELLAEKFPEQKEYLLDLAEEIESQIRSLSGVDVEDVRKFLDKEWAWVKELLAEHPAELAEVEKARAARLAELRAEVEAKVAA
B3: E36P (designed binder)
chain: MTLQELLREEALRRAEAEAFRYALELLAEKFPEQKPYLLDLAEEIESQIRSLSGVDVEDVRKFLDKEWAWVKELLAEHPAELAEVEAARAARLAELRAEVEAKVAA
B4: E36G (designed binder)
chain: MTLQELLREEALRRAEAEAFRYALELLAEKFPEQKGYLLDLAEEIESQIRSLSGVDVEDVRKFLDKEWAWVKELLAEHPAELAEVEAARAARLAELRAEVEAKVAA
B5: E44A (designed binder)
chain: MTLQELLREEALRRAEAEAFRYALELLAEKFPEQKEYLLDLAEAIESQIRSLSGVDVEDVRKFLDKEWAWVKELLAEHPAELAEVEAARAARLAELRAEVEAKVAA
B6: L3M (designed binder)
chain: MTMQELLREEALRRAEAEAFRYALELLAEKFPEQKEYLLDLAEEIESQIRSLSGVDVEDVRKFLDKEWAWVKELLAEHPAELAEVEAARAARLAELRAEVEAKVAA
B7: L24F (designed binder)
chain: MTLQELLREEALRRAEAEAFRYAFELLAEKFPEQKEYLLDLAEEIESQIRSLSGVDVEDVRKFLDKEWAWVKELLAEHPAELAEVEAARAARLAELRAEVEAKVAA
B8: V60Y (designed binder)
chain: MTLQELLREEALRRAEAEAFRYALELLAEKFPEQKEYLLDLAEEIESQIRSLSGVDVEDYRKFLDKEWAWVKELLAEHPAELAEVEAARAARLAELRAEVEAKVAA
B9: E36N (designed binder)
chain: MTLQELLREEALRRAEAEAFRYALELLAEKFPEQKNYLLDLAEEIESQIRSLSGVDVEDVRKFLDKEWAWVKELLAEHPAELAEVEAARAARLAELRAEVEAKVAA
B10: G54P (designed binder)
chain: MTLQELLREEALRRAEAEAFRYALELLAEKFPEQKEYLLDLAEEIESQIRSLSPVDVEDVRKFLDKEWAWVKELLAEHPAELAEVEAARAARLAELRAEVEAKVAA
B11: V55Y (designed binder)
chain: MTLQELLREEALRRAEAEAFRYALELLAEKFPEQKEYLLDLAEEIESQIRSLSGYDVEDVRKFLDKEWAWVKELLAEHPAELAEVEAARAARLAELRAEVEAKVAA
B12: H78P (designed binder)
chain: MTLQELLREEALRRAEAEAFRYALELLAEKFPEQKEYLLDLAEEIESQIRSLSGVDVEDVRKFLDKEWAWVKELLAEPPAELAEVEAARAARLAELRAEVEAKVAA
B13: A42Q (designed binder)
chain: MTLQELLREEALRRAEAEAFRYALELLAEKFPEQKEYLLDLQEEIESQIRSLSGVDVEDVRKFLDKEWAWVKELLAEHPAELAEVEAARAARLAELRAEVEAKVAA
B14: S53Y (designed binder)
chain: MTLQELLREEALRRAEAEAFRYALELLAEKFPEQKEYLLDLAEEIESQIRSLYGVDVEDVRKFLDKEWAWVKELLAEHPAELAEVEAARAARLAELRAEVEAKVAA
B15: E67V (designed binder)
chain: MTLQELLREEALRRAEAEAFRYALELLAEKFPEQKEYLLDLAEEIESQIRSLSGVDVEDVRKFLDKVWAWVKELLAEHPAELAEVEAARAARLAELRAEVEAKVAA
B16: E25A (designed binder)
chain: MTLQELLREEALRRAEAEAFRYALALLAEKFPEQKEYLLDLAEEIESQIRSLSGVDVEDVRKFLDKEWAWVKELLAEHPAELAEVEAARAARLAELRAEVEAKVAA
B17: R8Q (designed binder)
chain: MTLQELLQEEALRRAEAEAFRYALELLAEKFPEQKEYLLDLAEEIESQIRSLSGVDVEDVRKFLDKEWAWVKELLAEHPAELAEVEAARAARLAELRAEVEAKVAA
B18: T2Q (designed binder)
chain: MQLQELLREEALRRAEAEAFRYALELLAEKFPEQKEYLLDLAEEIESQIRSLSGVDVEDVRKFLDKEWAWVKELLAEHPAELAEVEAARAARLAELRAEVEAKVAA
B19: E16P (designed binder)
chain: MTLQELLREEALRRAPAEAFRYALELLAEKFPEQKEYLLDLAEEIESQIRSLSGVDVEDVRKFLDKEWAWVKELLAEHPAELAEVEAARAARLAELRAEVEAKVAA
B20: R89N (designed binder)
chain: MTLQELLREEALRRAEAEAFRYALELLAEKFPEQKEYLLDLAEEIESQIRSLSGVDVEDVRKFLDKEWAWVKELLAEHPAELAEVEAANAARLAELRAEVEAKVAA
B21: S53I (designed binder)
chain: MTLQELLREEALRRAEAEAFRYALELLAEKFPEQKEYLLDLAEEIESQIRSLIGVDVEDVRKFLDKEWAWVKELLAEHPAELAEVEAARAARLAELRAEVEAKVAA
B22: E101K (designed binder)
chain: MTLQELLREEALRRAEAEAFRYALELLAEKFPEQKEYLLDLAEEIESQIRSLSGVDVEDVRKFLDKEWAWVKELLAEHPAELAEVEAARAARLAELRAEVKAKVAA
B23: K103F (designed binder)
chain: MTLQELLREEALRRAEAEAFRYALELLAEKFPEQKEYLLDLAEEIESQIRSLSGVDVEDVRKFLDKEWAWVKELLAEHPAELAEVEAARAARLAELRAEVEAFVAA
B24: A94Y (designed binder)
chain: MTLQELLREEALRRAEAEAFRYALELLAEKFPEQKEYLLDLAEEIESQIRSLSGVDVEDVRKFLDKEWAWVKELLAEHPAELAEVEAARAARLYELRAEVEAKVAA
B25: T2D (designed binder)
chain: MDLQELLREEALRRAEAEAFRYALELLAEKFPEQKEYLLDLAEEIESQIRSLSGVDVEDVRKFLDKEWAWVKELLAEHPAELAEVEAARAARLAELRAEVEAKVAA

The target of the assay is T1, TNFR1. Put plainly: yeast display SC50.
B1: the “apparent Kd (screen)” value was determined as 12.5 nM. Consider B2, for which the “apparent Kd (screen)” value amounted to 0.49 nM. On to B3, for which the “apparent Kd (screen)” value is 0.49 nM. In the case of B4, the “apparent Kd (screen)” value came out at 0.718 nM.

Regarding B5, the “apparent Kd (screen)” value amounted to 7.78 nM. In the case of B6, the “apparent Kd (screen)” value was 2.73 nM. In the case of B7, the “apparent Kd (screen)” value turned out to be 0.653 nM.

Consider B8, for which the “apparent Kd (screen)” value came out at 0.539 nM. In the case of B9, the “apparent Kd (screen)” value stood at 1.27 nM. B10: the “apparent Kd (screen)” value was determined as 12.5 nM. Next, B11: 0.956 nM. Next, B12: 1.69 nM. Take B13: the “apparent Kd (screen)” value stood at 2.05 nM. For B14, the “apparent Kd (screen)” value amounted to 6.43 nM. For the molecule B15, the “apparent Kd (screen)” value turned out to be 20.2 nM. For the molecule B16, the “apparent Kd (screen)” value is 0.405 nM.

Consider B17, for which the “apparent Kd (screen)” value is 0.653 nM.

In the case of B18, the “apparent Kd (screen)” value is 1.27 nM. On to B19, for which the “apparent Kd (screen)” value is 9.41 nM.

On to B20, for which the “apparent Kd (screen)” value was determined as 1.05 nM.

As for B21, the “apparent Kd (screen)” value came to 2.25 nM. With B22, the “apparent Kd (screen)” value came to 0.653 nM. In the case of B23, the “apparent Kd (screen)” value was 0.869 nM. In the case of B24, the “apparent Kd (screen)” value is 0.593 nM. Turning to B25, the “apparent Kd (screen)” value worked out at 1.54 nM.

Values taken from PMC12416549 (2024).
